T1: human neuromedin U receptor 1 (human, UniProt Q9HB89 24-426)
T1 sequence (looked up): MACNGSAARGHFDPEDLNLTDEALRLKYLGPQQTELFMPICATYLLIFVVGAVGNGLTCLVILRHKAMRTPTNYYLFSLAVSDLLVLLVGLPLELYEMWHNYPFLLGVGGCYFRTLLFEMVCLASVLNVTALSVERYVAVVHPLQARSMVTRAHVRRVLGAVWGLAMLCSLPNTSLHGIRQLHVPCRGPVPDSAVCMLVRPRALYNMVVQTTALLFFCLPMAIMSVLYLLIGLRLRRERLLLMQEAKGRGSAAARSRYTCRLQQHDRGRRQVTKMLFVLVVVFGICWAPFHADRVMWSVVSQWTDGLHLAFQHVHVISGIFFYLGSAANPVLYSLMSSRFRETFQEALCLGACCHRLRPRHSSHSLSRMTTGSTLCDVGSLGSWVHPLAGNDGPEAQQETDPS

B1: C20DA-gGlu3-Sar12-AEPipAc-Tyr-Phe-NMeLeu-Nle-Dbu-Pro-Arg-Gly-NH2 (peptide)
peptide: EEEXXXXXXXXXXXXXYFLXXPRG
HELM: PEPTIDE1{[O=C(O)CCCCCCCCCCCCCCCCCCC(=O)[*:2]].[gGlu].[gGlu].[gGlu].[Sar].[Sar].[Sar].[Sar].[Sar].[Sar].[Sar].[Sar].[Sar].[Sar].[Sar].[Sar].[O=C(CN1CCN(CCN[*:1])CC1)[*:2]].Y.F.[meL].[Nle].[Dab].P.R.G.[am]}$$$$V2.0
SMILES: CCCC[C@H](NC(=O)[C@H](CC(C)C)N(C)C(=O)[C@H](Cc1ccccc1)NC(=O)[C@H](Cc1ccc(O)cc1)NC(=O)CN1CCN(CCNC(=O)CN(C)C(=O)CN(C)C(=O)CN(C)C(=O)CN(C)C(=O)CN(C)C(=O)CN(C)C(=O)CN(C)C(=O)CN(C)C(=O)CN(C)C(=O)CN(C)C(=O)CN(C)C(=O)CN(C)C(=O)CC[C@H](NC(=O)CC[C@H](NC(=O)CC[C@H](NC(=O)CCCCCCCCCCCCCCCCCCC(=O)O)C(=O)O)C(=O)O)C(=O)O)CC1)C(=O)N[C@@H](CCN)C(=O)N1CCC[C@H]1C(=O)N[C@@H](CCCNC(=N)N)C(=O)NCC(N)=O
B2: C20DA-gGlu3-Sar15-AEPipAc-Tyr-Phe-NMeLeu-Nle-Arg-NMeAla-Arg-Gly-NH2 (peptide)
peptide: EEEXXXXXXXXXXXXXXXXYFLXRARG
HELM: PEPTIDE1{[O=C(O)CCCCCCCCCCCCCCCCCCC(=O)[*:2]].[gGlu].[gGlu].[gGlu].[Sar].[Sar].[Sar].[Sar].[Sar].[Sar].[Sar].[Sar].[Sar].[Sar].[Sar].[Sar].[Sar].[Sar].[Sar].[O=C(CN1CCN(CCN[*:1])CC1)[*:2]].Y.F.[meL].[Nle].R.[meA].R.G.[am]}$$$$V2.0
SMILES: CCCC[C@H](NC(=O)[C@H](CC(C)C)N(C)C(=O)[C@H](Cc1ccccc1)NC(=O)[C@H](Cc1ccc(O)cc1)NC(=O)CN1CCN(CCNC(=O)CN(C)C(=O)CN(C)C(=O)CN(C)C(=O)CN(C)C(=O)CN(C)C(=O)CN(C)C(=O)CN(C)C(=O)CN(C)C(=O)CN(C)C(=O)CN(C)C(=O)CN(C)C(=O)CN(C)C(=O)CN(C)C(=O)CN(C)C(=O)CN(C)C(=O)CC[C@H](NC(=O)CC[C@H](NC(=O)CC[C@H](NC(=O)CCCCCCCCCCCCCCCCCCC(=O)O)C(=O)O)C(=O)O)C(=O)O)CC1)C(=O)N[C@@H](CCCNC(=N)N)C(=O)N(C)[C@@H](C)C(=O)N[C@@H](CCCNC(=N)N)C(=O)NCC(N)=O
B3: C20DA-gGlu3-Sar15-AEPipAc-Tyr-Phe-NMeLeu-Nle-Arg-Pro-Arg-Gly-NH2 (peptide)
peptide: EEEXXXXXXXXXXXXXXXXYFLXRPRG
HELM: PEPTIDE1{[O=C(O)CCCCCCCCCCCCCCCCCCC(=O)[*:2]].[gGlu].[gGlu].[gGlu].[Sar].[Sar].[Sar].[Sar].[Sar].[Sar].[Sar].[Sar].[Sar].[Sar].[Sar].[Sar].[Sar].[Sar].[Sar].[O=C(CN1CCN(CCN[*:1])CC1)[*:2]].Y.F.[meL].[Nle].R.P.R.G.[am]}$$$$V2.0
SMILES: CCCC[C@H](NC(=O)[C@H](CC(C)C)N(C)C(=O)[C@H](Cc1ccccc1)NC(=O)[C@H](Cc1ccc(O)cc1)NC(=O)CN1CCN(CCNC(=O)CN(C)C(=O)CN(C)C(=O)CN(C)C(=O)CN(C)C(=O)CN(C)C(=O)CN(C)C(=O)CN(C)C(=O)CN(C)C(=O)CN(C)C(=O)CN(C)C(=O)CN(C)C(=O)CN(C)C(=O)CN(C)C(=O)CN(C)C(=O)CN(C)C(=O)CC[C@H](NC(=O)CC[C@H](NC(=O)CC[C@H](NC(=O)CCCCCCCCCCCCCCCCCCC(=O)O)C(=O)O)C(=O)O)C(=O)O)CC1)C(=O)N[C@@H](CCCNC(=N)N)C(=O)N1CCC[C@H]1C(=O)N[C@@H](CCCNC(=N)N)C(=O)NCC(N)=O

EC50 (hNMUR1) buffer data for three molecules are collected here from patent publication US20240279278A1, “NMU RECEPTOR 2 AGONISTS” (Boehringer Ingelheim International GmbH, priority 2023, published 2024).

In this assay the target is T1, human neuromedin U receptor 1. As to the kind of experiment: cell-based or functional assay.
The molecule B1 yielded an EC50 (hNMUR1) buffer of 1000 nM.
B2: the EC50 (hNMUR1) buffer was determined as 720 nM.
In turn, B3 returned an EC50 (hNMUR1) buffer of 220 nM.
